According to US20230037815A1 (CULLINAN THERAPEUTICS, published 2023):

T1: human CD19 on CHO cells (human, UniProt P15391 20-556)
T1 construct: whole, on cells; also called Cells Expressing Human CD19; CHO cells overexpressing the antigen
T1 sequence (looked up): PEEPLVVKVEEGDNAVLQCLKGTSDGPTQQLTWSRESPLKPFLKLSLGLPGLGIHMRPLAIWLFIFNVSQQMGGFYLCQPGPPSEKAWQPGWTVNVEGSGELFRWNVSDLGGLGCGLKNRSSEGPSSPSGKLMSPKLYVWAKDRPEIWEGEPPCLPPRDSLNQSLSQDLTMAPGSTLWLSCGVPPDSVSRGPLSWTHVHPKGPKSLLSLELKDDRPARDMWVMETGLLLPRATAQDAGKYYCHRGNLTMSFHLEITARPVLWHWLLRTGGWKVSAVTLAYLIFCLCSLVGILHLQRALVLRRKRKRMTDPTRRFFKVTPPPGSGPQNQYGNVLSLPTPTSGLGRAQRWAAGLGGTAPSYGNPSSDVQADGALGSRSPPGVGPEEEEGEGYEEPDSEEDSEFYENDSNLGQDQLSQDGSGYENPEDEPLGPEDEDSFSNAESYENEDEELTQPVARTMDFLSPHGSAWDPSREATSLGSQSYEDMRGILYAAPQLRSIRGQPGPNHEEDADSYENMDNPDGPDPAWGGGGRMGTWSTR

T2: human CD19 (human, UniProt P15391 20-291, biotinylated in the Biacore assay of Table 11)
T2 construct: also called isolated CD19; Human CD19 Protein
T2 sequence (looked up): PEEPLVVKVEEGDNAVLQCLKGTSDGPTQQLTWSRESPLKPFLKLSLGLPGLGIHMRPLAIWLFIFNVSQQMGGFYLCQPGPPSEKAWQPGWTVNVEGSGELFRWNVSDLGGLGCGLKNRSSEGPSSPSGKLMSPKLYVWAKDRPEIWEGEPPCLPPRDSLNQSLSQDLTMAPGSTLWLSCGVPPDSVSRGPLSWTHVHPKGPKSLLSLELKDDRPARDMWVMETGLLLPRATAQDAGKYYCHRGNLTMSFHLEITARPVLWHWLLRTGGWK


How the values were obtained:
human CD19 on CHO cells = target: T1, human CD19 on CHO cells; experiment: flow cytometry, CHO cells, 100 nM IgG
Method: The binding affinity of the antibodies to CD19 expressed on the cell surface was also measured. Briefly, approximately 100,000 Chinese hamster overy (CHO) cells overexpressing the antigen were washed with wash buffer and incubated with 100 μl 100 nM IgG for 15 minutes at room temperature. Cells were then washed twice with wash buffer and incubated with 100 μl of 1:100 Human-PE for 15 minutes on ice. Cells were then washed twice more with wash buffer and analyzed on a FACS Canto II analyzer (BD Biosciences).

human CD19 = target: T2, human CD19; experiment: Octet HTX (ForteBio), IgG on AHC sensor, 1:1 fit
Method: The binding affinity of the antibodies to isolated CD19 was measured by […] using a ForteBio Octet HTX system as previously described (see, e.g., Estep et al, High throughput solution-based measurement of antibody-antigen affinity and epitope binning. Mabs 5(2), 270-278 (2013)). Briefly, ForteBio affinity measurements were performed by loading IgGs on-line onto anti-hIgG Fc Capture (AHC) sensors. The sensors were equilibrated off-line in assay buffer for 30 minutes and then monitored on-line for 60 seconds for baseline establishment. The sensors with loaded IgGs were exposed to 100 nM […] for 3 minutes, and subsequently transferred to assay buffer for 3 minutes for off-rate measurement. All kinetics were analyzed using the 1:1 binding model.

Binder | Binding to Cells Expressing Human CD19 (FOB) (human CD19 on CHO cells) | Kd (human CD19) [pM] | koff (human CD19) [s⁻¹]
CNG-CD19-7 (antibody, V domains shown, tested as IgG; also called parental antibody) VH: QVQLQESGPGLVKPSQTLSLTCTVSGGSISTSGMGVGWIRQHPGKGLEWIGHIWWDDDKRYNPALKSRVTISVDTSKNQFSLKLSSVTAADTAVYYCARMELWSYYFDYWGQGTLVTVSS VL: EIVLTQSPATLSLSPGERATLSCSASSSVSYMHWYQQKPGQAPRLLIYDTSKLASGIPARFSGSGSGTDFTLTISSLEPEDFAVYYCFQGSVYPFTFGQGTKLEIK | 71 | 2250 | 0.000396
CNG-CD19-702 (antibody, V domains shown, tested as IgG produced in yeast) VH: QVQLQESGPGLVKPSQTLSLTCTVSGGSTSTSGMGVSWIRQHPGKGLEWIGHIWWDDDKRYNPVLKSRVTISVDTSKNQFSLKLSSVTAADTAVYYCARMELWSYYFDPWGQGTLVTVSS VL: EIVLTQSPATLSLSPGERATLSCSASSSVSYMHWYQQKPGQAPRLLIYDTSKLASGIPARFSGSGSGTDFTLTISSLEPEDFAVYYCFQGSVYPFTFGQGTKLEIK | 180 | 500 | 0.000175
CNG-CD19-703 (antibody, V domains shown, tested as IgG produced in yeast) VH: QVQLQESGPGLVKPSQTLSLTCTVSGGSISTSTMGVGWIRQHPGKGLEWIGFIWWDDDKRYNPNLKSRVTMSVDTSKNQFSLKLSSVTAADTAVYYCARMELWSYYFEYWGQGTLVTVSS VL: EIVLTQSPATLSLSPGERATLSCSASSSVSYMHWYQQKPGQAPRLLIYDTSKLASGIPARFSGSGSGTDFTLTISSLEPEDFAVYYCFQGSVYPFTFGQGTKLEIK | 135 | 289 | 8.19e-05
CNG-CD19-1 (antibody, V domains shown, tested as IgG; also called parental antibody) VH: QVQLVQSGAEVKKPGASVKVSCKASGYTFTDYIMHWVRQAPGQGLEWMGYINPYNDGSKYTEKFQGRVTMTSDTSISTAYMELSRLRSDDTAVYYCARGTYYYGPQLFDYWGQGTTVTVSS VL: DIVMTQTPLSLSVTPGQPASISCKSSQSLETSTGTTYLNWYLQKPGQSPQLLIYRVSKRFSGVPDRFSGSGSGTDFTLKISRVEAEDVGVYYCLQLLEDPYTFGQGTKLEIK | 267 | 346 | 0.000114
CNG-CD19-110 (antibody, V domains shown, tested as IgG produced in yeast) VH: QVQLVQSGAEVKKPGASVKVSCKASGYTFTDYIMHWVRQAPGQGLEWMGYINPYNDGSKYTEKFQGRVTMTSDTSISTAYMELSRLRSDDTAVYYCARGTYYYGPQLFDYWGQGTTVTVSS VL: DIVMTQTPLSLSVTPGQPASISCKSSQSLETSTGTTYLNWYLQKPGQSPQLLIYRSSKRFSGVPDRFSGSGSGTDFTLKISRVEAEDVGVYYCLQLLEDPPTFGQGTKLEIK | 293 | 353 | 0.000121
CNG-CD19-102 (antibody, V domains shown, tested as IgG produced in yeast) VH: QVQLVQSGAEVKKPGASVKVSCKASGYEFTDYIMHWVRQAPGQGLEWMGYINPYNDGSKYTEKFQPRVTMTSDTSISTAYMELSRLRSDDTAVYYCARGTYYYGPQLFDYWGQGTTVTVSS VL: DIVMTQTPLSLSVTPGQPASISCKSSQSLETSTGTTYLNWYLQKPGQSPQLLIYRVSKRFSGVPDRFSGSGSGTDFTLKISRVEAEDVGVYYCLQLLEDPYTFGQGTKLEIK | 258 | 298 | 9.12e-05

Binders with a lower Kd (human CD19), results first:

Binding to Cells Expressing Human CD19 (FOB) (human CD19 on CHO cells) | Kd (human CD19) [pM] | koff (human CD19) [s⁻¹] | Binder
195 | 187 | 7.05e-05 | CNG-CD19-701 (antibody, V domains shown, tested as IgG produced in yeast) VH: QVQLQESGPGLVKPSQTLSLTCTVSGGSISTSTMGVGWIRQHPGKGLEWIGFIWWDDDKRYNPNLKSRVTMSVDTSKNQFSLKLSSVTAADTAVYYCARMELWSYYFDYWGQGTLVTVSS VL: EIVLTQSPATLSLSPGERATLSCSASSSVGYMHWYQQKPGQAPRLLIYDTSKLASGIPARFSGSGSGTDFTLTISSLEPEDFAVYYCFQGSVYPFTFGQGTKLEIK
296 | 144 | 5.72e-05 | CNG-CD19-101 (antibody, V domains shown, tested as IgG produced in yeast) VH: QVQLVQSGAEVKKPGASVKVSCKASGYDFTDYIMHWVRQAPGQGLEWMGYINPYNDGSKYTDKFQERVTMTSDTSISTAYMELSRLRSDDTAVYYCARGTYYYGPELFDYWGQGTTVTVSS VL: DIVMTQTPLSLSVTPGQPASISCKSSQSLETTTGTTYLNWYLQKPGQSPQLLIYRASKRFSGVPDRFSGSGSGTDFTLKISRVEAEDVGVYYCLQLLEDPYTFGQGTKLEIK
315 | 277 | 5.71e-05 | CNG-CD19-107 (antibody, V domains shown, tested as IgG produced in yeast) VH: QVQLVQSGAEVKKPGASVKVSCKASGYDFTDYIMHWVRQAPGQGLEWMGYINPYNDGSKYTEKFQHRVTMTSDTSISTAYMELSRLRSDDTAVYYCARGTYYYGPQLFDYWGQGTTVTVSS VL: DIVMTQTPLSLSVTPGQPASISCKSSQSLETSTGTTYLNWYLQKPGQSPQLLIYRVSRRFSGVPDRFSGSGSGTDFTLKISRVEAEDVGVYYCLQLLEDPYTFGQGTKLEIK
334 | 144 | 4e-05 | CNG-CD19-109 (antibody, V domains shown, tested as IgG produced in yeast) VH: QVQLVQSGAEVKKPGASVKVSCKASGYDFTDYIVHWVRQAPGQGLEWMGYINPYNDGSLYTEKFQGRVTMTSDTSISTAYMELSRLRSDDTAVYYCARGTYYYGPQLFDYWGQGTTVTVSS VL: DIVMTQTPLSLSVTPGQPASISCKSSQQLETSTGTTYLNWYLQKPGQSPQLLIYRASKRFSGVPDRFSGSGSGTDFTLKISRVEAEDVGVYYCLQLLEDPYSFGQGTKLEIK
286 | 106 | 4e-05 | CNG-CD19-103 (antibody, V domains shown, tested as IgG produced in yeast) VH: QVQLVQSGAEVKKPGASVKVSCKASGYTFTDYIMHWVRQAPGQGLEWMGYINPYNDGSKYTEKFQGRVTMTSDTSISTAYMELSRLRSDDTAVYYCARGTYYYGPQLFDYWGQGTTVTVSS VL: DIVMTQTPLSLSVTPGQPASISCKSSQSLETATGTTYLNWYLQKPGQSPQLLIYRVSRRFSGVPDRFSGSGSGTDFTLKISRVEAEDVGVYYCLQLLEDPYSFGQGTKLEIK
327 | 144 | 6e-05 | CNG-CD19-104 (antibody, V domains shown, tested as IgG produced in yeast) VH: QVQLVQSGAEVKKPGASVKVSCKASGYDFTDYIVHWVRQAPGQGLEWMGYINPYNDGSKYTEKFQGRVTMTSDTSISTAYMELSRLRSDDTAVYYCARGTYYYGPELFDYWGQGTTVTVSS VL: DIVMTQTPLSLSVTPGQPASISCKSGQSLETSTGTTYLNWYLQKPGQSPQLLIYRVSRRFSGVPDRFSGSGSGTDFTLKISRVEAEDVGVYYCLQLLEDPYTFGQGTKLEIK
351 | 164 | 8.28e-05 | CNG-CD19-105 (antibody, V domains shown, tested as IgG produced in yeast) VH: QVQLVQSGAEVKKPGASVKVSCKASGYEFTDYIMHWVRQAPGQGLEWMGYINPYNDGSKYTEKFEGRVTMTSDTSISTAYMELSRLRSDDTAVYYCARGTYYYGPELFDYWGQGTTVTVSS VL: DIVMTQTPLSLSVTPGQPASISCKSSQRLETSTGTTYLNWYLQKPGQSPQLLIYRVSRRFSGVPDRFSGSGSGTDFTLKISRVEAEDVGVYYCLQLLEDPPTFGQGTKLEIK
319 | 164 | 5.26e-05 | CNG-CD19-108 (antibody, V domains shown, tested as IgG produced in yeast) VH: QVQLVQSGAEVKKPGASVKVSCKASGYDFTDYIVHWVRQAPGQGLEWMGYINPYNDGSKYTEKFQGRVTMTSDTSISTAYMELSRLRSDDTAVYYCARGTYYYGPQLFDYWGQGTTVTVSS VL: DIVMTQTPLSLSVTPGQPASISCKSSQSLETVTGTTYLNWYLQKPGQSPQLLIYRVSKRFSGVPDRFSGSGSGTDFTLKISRVEAEDVGVYYCLQLLEDPPTFGQGTKLEIK
354 | 189 | 0.000114 | CNG-CD19-106 (antibody, V domains shown, tested as IgG produced in yeast) VH: QVQLVQSGAEVKKPGASVKVSCKASGYDFTDYIMHWVRQAPGQGLEWMGYINPYNDGSEYTEKFQGRVTMTSDTSISTAYMELSRLRSDDTAVYYCARGTYYYGPQLFDYWGQGTTVTVSS VL: DIVMTQTPLSLSVTPGQPASISCKSSQSLETATGTTYLNWYLQKPGQSPQLLIYRVSRRFSGVPDRFSGSGSGTDFTLKISRVEAEDVGVYYCLQLLEDPYTFGQGTKLEIK
